In PMC4778124, “A continuous sirtuin activity assay without any coupling to enzymatic or chemical reactions” (Scientific Reports, 2016):
Primed or numbered codes have the meaning given here. *: point of attachment. thiosuccinyl = lysine reacted with methyl 3-[(methylthio)thiocarbonyl]propanoate, then 1 M NaOH (thioxo peptide), O=C(O)CCC(=S)*; thioacetyl = lysine reacted with ethyl dithioacetate (thioxo peptide), CC(=S)*; Bz′ = not defined here

Target: T1, human sirtuin 2 (human, UniProt Q8IXJ6 1-389)
T1 construct: sirtuin 2 (Sirt2), human; also called Sirt2
T1 sequence (looked up): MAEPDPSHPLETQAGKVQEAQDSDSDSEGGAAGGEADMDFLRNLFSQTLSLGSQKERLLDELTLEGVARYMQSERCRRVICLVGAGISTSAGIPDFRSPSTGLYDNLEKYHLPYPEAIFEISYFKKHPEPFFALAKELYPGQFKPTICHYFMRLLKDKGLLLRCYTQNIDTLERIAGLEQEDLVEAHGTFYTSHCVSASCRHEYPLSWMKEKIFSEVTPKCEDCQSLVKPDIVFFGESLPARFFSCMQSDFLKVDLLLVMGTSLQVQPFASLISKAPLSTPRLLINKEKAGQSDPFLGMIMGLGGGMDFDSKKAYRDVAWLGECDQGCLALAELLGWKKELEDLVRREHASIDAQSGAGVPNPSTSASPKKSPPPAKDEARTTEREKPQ
Assay: enzyme inhibition kinetics (continuous fluorescence activity assay); 96-well MTP fluorescence reader; kcat and KM for substrate 3 recorded at varying inhibitor concentrations (0.01-600 μM); 500 μM NAD+; 20 mM TRIS/HCl pH 7.8, 150 mM NaCl, 5 mM MgCl2; 37 °C; Ki from competitive and non-competitive inhibition models
Details: both partners purified

{Bz′}-GVLK(thiosuccinyl)EYGV-NH2 (source: synthetic peptide) [thioxo peptide 11 based on the CPS1 peptide]
Ki: 50 ± 9.9 µM

{Bz′}-GVLK(thioacetyl)EYGV-NH2 (source: synthetic peptide) [thioxo peptide 10 based on the CPS1 peptide]
Ki: 0.3 ± 0.1 µM
